From US6730486 (INSTITUT NATIONAL DE LA SANTE ET DE LA RECHERCHE MEDICALE, dated 2004) come the findings set out here.

B1: IκBα S32-36A (IκBα mutant at serines S32 and S36 so that there is no phosphorylation) (other, UniProt P25963 1-317, looked up)
chain: MFQAAERPQEWAMEGPRDGLKKERLLDDRHDAGLDAMKDEEYEQMVKELQEIRLEPQEVPRGSEPWKQQLTEDGDSFLHLAIIHEEKALTMEVIRQVKGDLAFLNFQNNLQQTPLHLAVITNQPEIAEALLGAGCDPELRDFRGNTPLHLACEQGCLASVGVLTQSCTTPHLHSILKATNYNGHTCLHLASIHGYLGIVELLVSLGADVNAQEPCNGRTALHLAVDLQNPDLVSLLLKCGADVNRVTYQGYSPYQLTWGRPSTRIQQQLGQLTLENLQMLPESEDEESYDTESEFTEFTEDELPYDDCVFGGQRLTL
notes: Two-hybrid hybrid; also called IκBα S32-36AA
B2: human βTrCP protein (h-βTrCP) (other)
chain: MDPAEAVLQEKALKFMNSSEREDCNNGEPPRKIIPEKNSLRQTYNSCARLCLNQETVCLASTAMKTENCVAKTKLANGTSSMIVPKQRKLSASYEKEKELCVKYFEQWSESDQVEFVEHLISQMCHYQHGHINSYLKPMLQRDFITALPARGLDHIAENILSYLDAKSLCAAELVCKEWYRVTSDGMLWKKLIERMVRTDSLWRGLAERRGWGQYLFKNKPPDGNAPPNSFYRALYPKIIQDIETIESNWRCGRHSLQRIHCRSETSKGVYCLQYDDQKIVSGLRDNTIKIWDKNTLECKRILTGHTGSVLCLQYDERVIITGSSDSTVRVWDVNTGEMLNTLIHHCEAVLHLRFNNGMMVTCSKDRSIAVWDMASPTDITLRRVLVGHRAAVNVVDFDDKYIVSASGDRTIKVWNTSTCEFVRTLNGHKRGIACLQYRDRLVVSGSSDNTIRLWDIECGACLRVLEGHEELVRCIRFDNKRIVSGAYDGKIKVWDLVAALDPRAPAGTLCLRTLVEHSGRVFRLQFDEFQIVSSSHDDTILIWDFLNDPAAQAEPPRSPSRTYTYISR
notes: 569 amino acids; also called whole h-βTrCP protein
B3: cytoplasmic region of CD4 (CD4c) (receptor, UniProt P01730 419-458, looked up)
chain: CVRCRHRRRQAERMSQIKRLLSEKKTCQCPHRFQKTCSPI
notes: domain: cytoplasmic region; Two-hybrid fusion; also called CD4 cytoplasmic domain
B4: βCat1→130 S33-37AA (oncogenic β-catenin protein mutated on serine residues S33 and S37 so that there is no phosphorylation) (other, UniProt P35222 1-130, looked up)
chain: MATQADLMELDMAMEPDRKAAVSHWQQQSYLDAGIHAGATTTAPSLSGKGNPEEEDVDTSQVLYEWEQGFSQSFTQEQVADIDGQYAMTRAQRVRAAMFPETLDEGMQIPSTQFDAAHPTNVQRLAEPSQ
notes: range 1-130; also called mutated β-catenin

The target of assay [1] is endogenous IκBα protein of 293 or Hela cells, phosphorylated form (human) (UniProt P25963). The assay can be described thus: cell-based or functional assay.
Assay [2] deals with B2. Briefly: yeast two-hybrid.
For assay [3], the target named is T1, βCat (whole normal β-catenin protein) (UniProt P35222 1-781).
T1 construct: Two-hybrid hybrid; also called whole β-catenin protein
T1 sequence (looked up): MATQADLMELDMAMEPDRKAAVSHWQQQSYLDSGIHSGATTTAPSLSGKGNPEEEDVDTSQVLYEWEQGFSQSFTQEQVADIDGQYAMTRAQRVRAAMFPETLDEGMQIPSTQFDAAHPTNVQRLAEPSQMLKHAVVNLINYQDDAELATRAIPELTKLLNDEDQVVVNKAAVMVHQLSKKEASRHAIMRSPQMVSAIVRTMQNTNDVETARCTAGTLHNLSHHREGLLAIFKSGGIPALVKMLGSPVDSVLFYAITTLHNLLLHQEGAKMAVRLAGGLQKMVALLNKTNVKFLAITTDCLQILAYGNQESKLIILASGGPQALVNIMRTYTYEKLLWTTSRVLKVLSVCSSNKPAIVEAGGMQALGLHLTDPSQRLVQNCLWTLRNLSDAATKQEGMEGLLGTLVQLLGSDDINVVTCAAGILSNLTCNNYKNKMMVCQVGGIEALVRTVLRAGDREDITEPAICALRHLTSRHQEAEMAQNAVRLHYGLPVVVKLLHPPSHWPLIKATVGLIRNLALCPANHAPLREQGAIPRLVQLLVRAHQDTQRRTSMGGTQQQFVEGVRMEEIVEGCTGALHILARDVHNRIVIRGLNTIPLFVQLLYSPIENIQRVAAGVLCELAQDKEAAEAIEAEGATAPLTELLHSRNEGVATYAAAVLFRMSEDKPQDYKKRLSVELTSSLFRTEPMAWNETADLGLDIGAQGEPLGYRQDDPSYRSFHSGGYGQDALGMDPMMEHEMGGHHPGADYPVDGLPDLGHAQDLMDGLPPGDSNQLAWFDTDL
Briefly: yeast two-hybrid, FIG. 10.

Assay [4] addresses B2. Briefly: yeast two-hybrid (His3 and LacZ reporters).
Another assay has as its target human Skp1p protein (human, UniProt P63208 1-163). The assay can be described thus: yeast two-hybrid (strain L40).
Assay [5] has as its target T2, KIAA 0696 (βTrCP2), human βTrCP protein isolated by ISHIKAWA et al. (human, UniProt Q9UKB1 1-542, limits assumed).
T2 construct: Two-hybrid hybrid; also called βTCP2; KIA 696
T2 sequence (looked up): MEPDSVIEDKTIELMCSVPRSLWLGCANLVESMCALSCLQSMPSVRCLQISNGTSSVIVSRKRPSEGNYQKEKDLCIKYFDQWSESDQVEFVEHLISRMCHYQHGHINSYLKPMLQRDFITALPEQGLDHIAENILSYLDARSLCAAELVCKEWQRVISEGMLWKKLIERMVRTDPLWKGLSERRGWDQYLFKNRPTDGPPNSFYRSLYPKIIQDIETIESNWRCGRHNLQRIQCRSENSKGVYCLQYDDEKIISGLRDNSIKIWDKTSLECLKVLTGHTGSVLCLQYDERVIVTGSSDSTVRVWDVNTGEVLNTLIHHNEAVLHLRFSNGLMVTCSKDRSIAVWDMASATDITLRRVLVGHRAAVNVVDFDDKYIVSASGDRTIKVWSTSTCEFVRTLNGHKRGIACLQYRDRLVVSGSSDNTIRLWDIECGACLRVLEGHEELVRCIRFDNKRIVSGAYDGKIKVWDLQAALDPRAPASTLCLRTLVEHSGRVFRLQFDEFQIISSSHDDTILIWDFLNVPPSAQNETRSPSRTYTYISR
The assay can be described thus: yeast two-hybrid.

Sequence of human Skp1p protein (P63208 whole entry): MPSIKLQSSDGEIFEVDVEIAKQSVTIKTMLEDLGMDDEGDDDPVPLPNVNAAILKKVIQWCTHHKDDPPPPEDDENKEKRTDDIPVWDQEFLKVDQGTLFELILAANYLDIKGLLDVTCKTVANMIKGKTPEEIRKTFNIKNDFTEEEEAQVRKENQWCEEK

“h-βTrCPΔF fragment (deleted residues: 32 to 179) (from UniProt Q9Y297 1-605)” gave a fold decrease in transcription activation induced by TNFα (NFκB-dependent luciferase reporter, FIG. 7) in assay [1] of 20 fold.
On to B1, for which the binding result in assay [2] is reported as “no binding”.
On to B2, for which the binding result in assay [3] is “binds”.
In the case of B3, the binding result (in assay [4]; with human Skp1p protein) was “no binding” in each case.
Consider B4, for which the binding result in assay [5] and in assay [2] was “no binding” each time.
